Test results as given in paper PMC11184549 (ACS Infectious Diseases, 2024).
No end group written: not given here. *: point of attachment. FITC = O=C1OC2(c3ccc(O)cc3Oc3cc(O)ccc32)c2ccc(NC(=S)*)cc21; Ahx = NCCCCCC(=O)O

Target: human IMPα1 lacking the IMPβ-binding domain (IMPαΔIBB) (human, UniProt P52292 70-529)
Assay: fluorescence polarisation

{FITC-Ahx}-LWGFLSRNKKPRICTREEF [FITC-labeled DENV1 NS5 NLS_(Central) peptide]
Kd: > 700 nM
